Measured values as given in the supplement of paper PMC7877785.
± gives the uncertainty stated by the source.

Assay: self-splicing fitness, log relative to wild type (ln ratio); higher = more splicing; Tetrahymena group I intron in knt gene, E. coli kanamycin selection, DiMSum; sequences stand for … in CUCUCU…GGAGGGAAAAGUUAUCAGGCAUGCACCUGGUAGCUAGUCUUUAAACCAAUAGAUUGCAUCGGUUUAAAAGGCAAGACCGUCAAAUUGCGGGAAAGGGGUCAACAGCCGUUCAGUACCAAGUCUCAGGGGAAACUUUGAGAUGGCCUUGCAAAGGGUAUGGUAAUAAGCUGACGGACAUGGUCCUAACCACGCAGCCAAGUCCUAAGUCAACAGAUCUUCUGUUGAUAUGGAUGCAGUUCACAGACUAAAUGUCGGUCGGGGAAGAUGUAUUCUUCUCAUAAGAUAUAGUCGGACCUCUCCUUAAUGGGAGCUAGCGGAUGAAGUGAUGCAACACUGGAGCCGCUGGGAACUAAUUUGUAUGCGAAAGUAUAUUGAUUAGUUUUGGAGUACUCGUGGUCG
Summary of the method: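 A randomised library covering all eight P1ex-region intron nucleotides was built with the intron in the knt kanamycin-resistance gene on pET-22b(+) and held in E. coli BL21(DE3). Cells were grown overnight at 37°C or 30°C on LB agar, with or without 25 μg/mL kanamycin, plus 100 μg/mL carbenicillin, 50 μM IPTG and 0.2% rhamnose, and pooled colonies were amplicon-sequenced on an Illumina HiSeq 2500. DiMSum fitness is the error-weighted combination of wild-type-normalised replicate fold changes, kanamycin versus none.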

Sequence | self-splicing fitness (ln) (30 °C) | self-splicing fitness (ln) (37 °C)
UGGUAGCAAUAUUACGGCAG | -1.15 ± 0.13 | 0.129 ± 0.17
UGGUAGCAAUAUUACGGCUG | -1.99 ± 0.15 | -0.886 ± 0.26
UGGUAGCAAUAUUACGGGCA | -0.0931 ± 0.13 | 0.591 ± 0.13
UGGUAGCAAUAUUACGGGCC | -1.4 ± 0.23 | –
UGGUAGCAAUAUUACGGGGA | -2.58 ± 0.26 | -2.18 ± 0.18
UGGUAGCAAUAUUACGGGUC | -3.15 ± 0.4 | -2.9 ± 0.47
UGGUAGCAAUAUUACGGUAA | -1.34 ± 0.18 | -0.209 ± 0.12
UGGUAGCAAUAUUACGGUCA | -0.695 ± 0.097 | -0.176 ± 0.1
UGGUAGCAAUAUUACGGUGU | -4.11 ± 0.31 | -0.563 ± 0.13
UGGUAGCAAUAUUACGUAUA | -1.51 ± 0.14 | -0.00881 ± 0.14
UGGUAGCAAUAUUACGUCAC | – | -1.37 ± 0.45
UGGUAGCAAUAUUACGUCUG | -0.683 ± 0.11 | 0.409 ± 0.17
UGGUAGCAAUAUUACGUUCC | -2.33 ± 0.23 | -1.19 ± 0.36
UGGUAGCAAUAUUACGUUGG | -1.4 ± 0.12 | -1.7 ± 0.14
UGUAAGCAAUAUUACGAGAU | -3.71 ± 0.3 | -3.14 ± 0.37
UGUAAGCAAUAUUACGAUAG | -1.44 ± 0.25 | -1.87 ± 0.29
UGUAAGCAAUAUUACGAUGA | -0.986 ± 0.098 | -0.393 ± 0.13
UGUAAGCAAUAUUACGCAGC | -3.28 ± 0.35 | -1.44 ± 0.19
UGUAAGCAAUAUUACGCAUC | -3.16 ± 0.31 | -1.74 ± 0.23
UGUAAGCAAUAUUACGCCGU | -2.48 ± 0.26 | -3.08 ± 0.47
UGUAAGCAAUAUUACGCGGA | -1.91 ± 0.26 | -1.29 ± 0.2
UGUAAGCAAUAUUACGGCAC | -1.49 ± 0.24 | -1.48 ± 0.42
UGUAAGCAAUAUUACGGCCA | -0.0492 ± 0.076 | -0.0953 ± 0.12
UGUAAGCAAUAUUACGGCUU | -1.01 ± 0.12 | -1.15 ± 0.15
UGUAAGCAAUAUUACGGGCA | -0.98 ± 0.09 | 0.521 ± 0.1

Sequence | self-splicing fitness (ln) (30 °C) | self-splicing fitness (ln) (37 °C)
UGUAAGCAAUAUUACGUGAC | -3.47 ± 0.33 | -1.77 ± 0.23
UGUAAGCAAUAUUACGUGGC | -4.03 ± 0.4 | -2.26 ± 0.37
UGUAAGCAAUAUUACGUUAC | -2.91 ± 0.22 | -3.12 ± 0.37
UGUAAGCAAUAUUACGUUAG | -1.56 ± 0.14 | -0.556 ± 0.17
UGUAAGCAAUAUUACGUUCG | 0.188 ± 0.095 | 0.33 ± 0.12
UGUAAGCAAUAUUACGUUUG | -1.24 ± 0.069 | -0.871 ± 0.084
UGUCAGCAAUAUUACGACUU | -1.14 ± 0.1 | 0.303 ± 0.16
UGUCAGCAAUAUUACGAGGU | -2.83 ± 0.33 | -2.81 ± 0.41
UGUCAGCAAUAUUACGAGUU | -1.33 ± 0.14 | -1.44 ± 0.2
UGUCAGCAAUAUUACGAUAA | -0.114 ± 0.06 | 0.438 ± 0.074
UGUCAGCAAUAUUACGCAAU | -1.81 ± 0.14 | -2.24 ± 0.2
UGUCAGCAAUAUUACGCAGU | -1.27 ± 0.18 | -0.898 ± 0.27
UGUCAGCAAUAUUACGCAUG | -0.692 ± 0.077 | 0.415 ± 0.097
UGUCAGCAAUAUUACGCCCA | 0.0616 ± 0.14 | 0.348 ± 0.18
UGUCAGCAAUAUUACGCGCG | -0.708 ± 0.14 | 0.0603 ± 0.13
UGUCAGCAAUAUUACGCGUG | 0.623 ± 0.069 | 0.117 ± 0.098
UGUCAGCAAUAUUACGGAGG | -1.68 ± 0.072 | -0.948 ± 0.097
UGUCAGCAAUAUUACGGAGU | -3.6 ± 0.17 | -1.96 ± 0.15
UGUCAGCAAUAUUACGGCCU | -0.452 ± 0.23 | 0.483 ± 0.3
UGUCAGCAAUAUUACGGCUA | 0.131 ± 0.094 | 0.327 ± 0.12
UGUCAGCAAUAUUACGGGUA | -0.294 ± 0.093 | 0.208 ± 0.11
UGUCAGCAAUAUUACGGGUG | -0.605 ± 0.042 | -0.00626 ± 0.067
UGUCAGCAAUAUUACGGUAG | -0.675 ± 0.07 | -0.235 ± 0.091
UGUCAGCAAUAUUACGUAAG | -0.352 ± 0.07 | 0.0208 ± 0.087
UGUCAGCAAUAUUACGUAGC | -3.11 ± 0.2 | -2.17 ± 0.19

Sequence | self-splicing fitness (ln) (30 °C) | self-splicing fitness (ln) (37 °C)
UGUCAGCAAUAUUACGUCCG | -0.177 ± 0.17 | 0.083 ± 0.2
UGUCAGCAAUAUUACGUCUA | 0.314 ± 0.096 | -0.489 ± 0.1
UGUCAGCAAUAUUACGUGAC | -2.8 ± 0.21 | -2.81 ± 0.26
UGUCAGCAAUAUUACGUGGA | -1.92 ± 0.1 | -0.49 ± 0.11
UGUCAGCAAUAUUACGUUCC | -1.82 ± 0.19 | -0.73 ± 0.25
UGUCAGCAAUAUUACGUUCU | -1.16 ± 0.071 | -0.142 ± 0.073
UGUCAGCAAUAUUACGUUGC | – | -1.75 ± 0.46
UGUCAGCAAUAUUACGUUUA | -0.825 ± 0.095 | -0.114 ± 0.089
UGUGAGCAAUAUUACGAACA | -0.691 ± 0.42 | -0.543 ± 0.45
UGUGAGCAAUAUUACGACCA | -1.27 ± 0.17 | -0.0518 ± 0.21
UGUGAGCAAUAUUACGAGGU | -3.52 ± 0.26 | -2.55 ± 0.23
UGUGAGCAAUAUUACGAGUU | -2.72 ± 0.22 | -1.97 ± 0.27
UGUGAGCAAUAUUACGCCCG | -0.83 ± 0.47 | -1.17 ± 0.42
UGUGAGCAAUAUUACGCGUG | -1.92 ± 0.11 | -1.75 ± 0.11
UGUGAGCAAUAUUACGGCCC | -1.88 ± 0.33 | -1.43 ± 0.44
UGUGAGCAAUAUUACGGCCU | -1.89 ± 0.27 | -1.18 ± 0.32
UGUGAGCAAUAUUACGGCUG | -0.445 ± 0.12 | -0.456 ± 0.19
UGUGAGCAAUAUUACGGGCC | -3 ± 0.31 | -3.45 ± 0.39
UGUGAGCAAUAUUACGGUCG | -0.638 ± 0.094 | -0.935 ± 0.12
UGUGAGCAAUAUUACGGUGA | -2.19 ± 0.31 | -1.67 ± 0.2
UGUGAGCAAUAUUACGGUUG | -2.98 ± 0.19 | -2.17 ± 0.23
UGUGAGCAAUAUUACGUCCU | -0.548 ± 0.1 | -1.51 ± 0.18
UGUGAGCAAUAUUACGUCGU | -2.1 ± 0.3 | –
UGUGAGCAAUAUUACGUGAC | -4.58 ± 0.32 | -3.08 ± 0.25
UGUGAGCAAUAUUACGUGGA | -2.53 ± 0.15 | -3.05 ± 0.22

Sequence | self-splicing fitness (ln) (30 °C) | self-splicing fitness (ln) (37 °C)
UGUGAGCAAUAUUACGUUUA | -2.98 ± 0.32 | -3.17 ± 0.47
UGUGAGCAAUAUUACGUUUG | -2.21 ± 0.14 | -2.76 ± 0.26
UGUUAGCAAUAUUACGACGA | -0.147 ± 0.12 | 0.253 ± 0.15
UGUUAGCAAUAUUACGAGCC | -2.39 ± 0.22 | -0.493 ± 0.17
UGUUAGCAAUAUUACGAGCU | -0.427 ± 0.16 | 0.455 ± 0.19
UGUUAGCAAUAUUACGCAGU | -3.62 ± 0.27 | -2.48 ± 0.27
UGUUAGCAAUAUUACGCCCC | – | 0.337 ± 0.48
UGUUAGCAAUAUUACGCUUC | – | -1.5 ± 0.48
UGUUAGCAAUAUUACGGAAA | – | -2.24 ± 0.39
UGUUAGCAAUAUUACGGGGG | -3.91 ± 0.35 | -1.94 ± 0.36
UGUUAGCAAUAUUACGGGUU | -4.27 ± 0.42 | -1.58 ± 0.17
UGUUAGCAAUAUUACGUAAG | -0.949 ± 0.097 | -0.452 ± 0.14
UGUUAGCAAUAUUACGUCGA | -0.909 ± 0.12 | 0.0206 ± 0.13
UGUUAGCAAUAUUACGUCGC | -3.73 ± 0.18 | -2.23 ± 0.18
UUAAAGCAAUAUUACGAAGC | -3.34 ± 0.32 | -2.25 ± 0.28
UUAAAGCAAUAUUACGACAA | 0.44 ± 0.091 | 0.336 ± 0.11
UUAAAGCAAUAUUACGACGA | 0.0585 ± 0.12 | 0.0349 ± 0.12
UUAAAGCAAUAUUACGACGU | -0.129 ± 0.069 | 0.0726 ± 0.1
UUAAAGCAAUAUUACGACUU | -1.11 ± 0.1 | -0.0515 ± 0.14
UUAAAGCAAUAUUACGAGAU | -3.41 ± 0.21 | -2.19 ± 0.21
UUAAAGCAAUAUUACGCAAU | -2.44 ± 0.15 | -1.42 ± 0.17
UUAAAGCAAUAUUACGCACC | -0.965 ± 0.33 | -0.676 ± 0.44
